This note sets out measurements from the RNAGym collection of RNA variant scans (doi:10.7554/elife.90254).

B1: LINE1-full (parent)
chain: UACGUAGGUGGUUUUCCCCUGAUAGUGCUAAGGGGGCCUGGAAGUUUGGACUGGGCAGAGCUCAACACAGCGUGGCAAAGUGGCUGUGGCUAGACUGCCUCUCUGGAUUCCUCGUCACUCAGCAGGGCAUCUCUGAGAGAAAUGCC

The variants in this data set derive from B1. As to the kind of experiment: self-cleavage, relative activity (ratio to wild type); higher = more cleavage; in vitro, sequencing; the parent is a self-cleaving ribozyme.
Regarding U12C A69C, the self-cleavage amounted to 0.09.
For G10A U23C the value was 1.49; for U9A U45C, 0.91; for U9A U20A, 1.41.
The figure for G10A U47C is 1.37.
Take U9C C38U: the self-cleavage was determined as 1.29.
For G10U U104C the value was 2.42; for G10A A67U, 0.07.
As for U9G U96A, the self-cleavage was determined as 0.
The figure for G11A U52G is 1.56; for G11C U20C it is 1.53.
The figure for G10C U13C is 0.94; for U12A U108C it is 1.28; for U9C A22U it is 0.89.
For U12C A30U the value was 0.53; for U12C A30G, 0.87; for U12A A142G, 1.31.
As for U9C A136U, the self-cleavage was 1.3.
As for U9C A136G, the self-cleavage amounted to 1.75.
The figure for U12C A43C is 1.45; for U12C A43G it is 1.33.
For U9C U46A the value was 1.18; for U9C U46C, 1.08; for U9G U47A, 0.99.
Regarding G11A A121U, the self-cleavage worked out at 0.95.
The figure for U9C U29A is 1.1; for U9G U102A it is 1.44.
The figure for U9A U62A is 0.12; for U9A U39C it is 0.25; for U9A U39A it is 1.16.
For U9C G125A, the self-cleavage is 1.8.
As to U12C A57U, the self-cleavage worked out at 0.22.
For U9C A138G the value was 1.21; for G10A A43G, 0.83.
Consider U12A A65G, for which the self-cleavage was 0.21.
Consider U12A A65C, for which the self-cleavage is 0.14.
On to G10A U12C, for which the self-cleavage was 1.04.
For U12A U100A the value was 0.87.
The figure for U12A G137U is 1.05; for G11A U29A it is 1.34; for U9C C76G it is 2.04.
The figure for U9C A107G is 1.61; for U9C A107U it is 1.59; for U9C G82U it is 1.34.
For U9A U109C, the self-cleavage came out at 1.34.
As for U9C U102C, the self-cleavage was determined as 1.3.
The figure for U9C U102A is 1.11; for U12A A138G it is 1.37; for U9G A67G it is 0.37.
The figure for U9G A94G is 0.22; for G10A C95A it is 0.03; for U12A G35A it is 0.98.
Consider U12A G35C, for which the self-cleavage stood at 1.52.
For U9G U130A the value was 0.78.
For U9G U130C the value was 1.79; for G10A U26C, 0.95; for U9C U62A, 0.14.
As to G10U C145A, the self-cleavage amounted to 1.
For U12A U109A the value was 0.65; for U9C G41A, 1.06.
On to U12A A69G, for which the self-cleavage amounted to 0.42.
Take U9A U14A: the self-cleavage amounted to 1.03.
For the variant U9C U134G, the self-cleavage amounted to 0.63.
The figure for U9C U134A is 1.19; for U9G U52G it is 1.05; for U9A G70C it is 0.3.
The figure for U9A U143C is 0.94; for U9A U143G it is 1.98; for U9A U143A it is 1.34.
For U9C C61U the value was 0.08.
In the case of G11A A142G, the self-cleavage was 1.23.
For G10A C133U the value was 1.31; for G10C C146U, 1.91; for U12C A42U, 1.
On to U9A U96A, for which the self-cleavage turned out to be 0.08.
As for U9C U20A, the self-cleavage stood at 0.95.
For G10A A22G the value was 1.09; for G10A A22U, 1.55.
The figure for G10A A22C is 1.54.
The figure for U9C A42G is 1.32; for U9A U85A it is 0.09.
U9A U85C: the self-cleavage stood at 0.54.
Consider U12A U15C, for which the self-cleavage stood at 0.92.
In the case of U12A U15A, the self-cleavage was determined as 0.95.
For U12C A78C the value was 2.54; for G11A U62G, 0.03; for U12C A59U, 0.13.
G10A U130G: the self-cleavage came to 0.93.
For U12A G49A the value was 1.05.
For U9G U81C the value was 0.83; for U9G A79G, 0.63; for G11C G48U, 1.25.
For U9A U115C the value was 1.55.
As to U12C A65G, the self-cleavage came out at 0.15.
For U9C U14A the value was 1.17; for U9C U14G, 2.09; for G11A C63A, 0.01.
Consider U9C U87A, for which the self-cleavage turned out to be 0.2.
The figure for U9C U87C is 0.42; for U9C U87G it is 0.69.
The figure for G10A A124U is 2.3.
For U9C A77G the value was 1.92.
Take U12A A121G: the self-cleavage worked out at 1.43.
On to U12A C98U, for which the self-cleavage stood at 0.41.
The figure for U9C A94U is 0.21; for U9C A94C it is 0.11; for U9C A94G it is 0.66.
The figure for U9C C113G is 1.75; for U12A U85A it is 0.15.
Turning to U9C G21A, the self-cleavage was found to be 1.32.
For G11A A64U the value was 0.3.
For U12A U104A the value was 1.19; for G10A U85C, 0.09; for U12A U26C, 1.22.
The figure for U9G A141G is 1.51; for U9G A141U it is 0.52.
Consider U9G U73C, for which the self-cleavage turned out to be 1.24.
The figure for U12A U73C is 1.11; for U12A U73A it is 1.47; for U12A U73G it is 0.73.
As to G11A C28G, the self-cleavage was 1.12.
The figure for U9A G36U is 0.71.
For U12C A24G the value was 1.13; for U12A A79G, 1.13.
The figure for U9A U52A is 0.9; for U9A U52C it is 0.74; for U9C U45C it is 1.27.
As to G10A U52C, the self-cleavage was found to be 0.62.
For U9C C28A the value was 1.16.
For U9A G126A the value was 0.82; for U9C G97A, 0.33; for U9C A43G, 1.12.
For U9G A43G the value was 0.85; for U9C G48C, 1.09.
Take U9G G60A: the self-cleavage worked out at 0.09.
For U9C U12C the value was 1.13; for U9C U12A, 1.51; for U9C U12G, 1.15.
For U9C U104C the value was 1.82; for U12A G32A, 1.08.
For U12A G32C the value was 0.8.
U9A U13C: the self-cleavage stood at 0.81.
For U9A U13A the value was 1.12; for U9C A78G, 1.19.
The figure for U9C A65U is 0.32; for U9C U52C it is 1.36.
For U9C U52A the value was 2.31.
Turning to U9A G127U, the self-cleavage is 1.92.
Consider U9A U73G, for which the self-cleavage worked out at 1.29.
For G11A C51U the value was 1.38; for U9A G53A, 1.53; for U9C G34C, 0.8.
With U9C G34A, the self-cleavage stood at 1.05.
For U9C A50C the value was 1.25; for U9C C16A, 0.59.
The figure for G11A U20G is 1.05; for G11A U20C it is 2.58.
The figure for U9A U26C is 1.24; for U9A U26A it is 0.7.
As to U9G A42G, the self-cleavage was determined as 1.4.
For G11A A141U the value was 1.05; for G10A G32A, 0.73; for G11A A65G, 0.02.
The figure for U9A G55C is 0.09; for U9C G35C it is 1.43.
The figure for U9A G35A is 1.09; for U9A G35C it is 1.87.
